From the supplement of paper PMC9112550, “Optimization of the antimicrobial peptide Bac7 by deep mutational scanning” (BMC Biology, 2022)

test system: Escherichia coli TOP10; assay: shrunken log2 fold change of peptide-encoding DNA abundance (4.5 h post-induction vs induction); higher = less antimicrobial activity (less host growth inhibition); conditions: time post-induction: 4.5 h; library: site-saturation at positions 5, 18, 19, 20
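Also: peptides expressed intracellularly from a pBAD plasmid library in pooled LB shake-flask culture, induced with 0.3% L-arabinose, DNA abundance read by NGS, three biological replicates, DESeq2 with apeglm shrinkage.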

Row | Sequence | shrunken log2 fold change
1 | RRIRTRPPRLPRPRPRPGEWPRP | 0.0179
2 | RRIRWRPPRLPRPRPRPFTRPRP | -0.00433
3 | RRIRWRPPRLPRPRPRPYYEPRP | -0.742
4 | RRIRNRPPRLPRPRPRPDITPRP | -0.0553
5 | RRIRLRPPRLPRPRPRPTYVPRP | -0.591
6 | RRIRQRPPRLPRPRPRPWGLPRP | 0.211
7 | RRIRQRPPRLPRPRPRPKTSPRP | -0.15
8 | RRIRDRPPRLPRPRPRPMWTPRP | 0.217
9 | RRIRKRPPRLPRPRPRPPYWPRP | 0.429
10 | RRIRKRPPRLPRPRPRPAKWPRP | 0.26
11 | RRIRVRPPRLPRPRPRPMWNPRP | -0.0504
12 | RRIRMRPPRLPRPRPRPITAPRP | 0.244
13 | RRIRWRPPRLPRPRPRPCLFPRP | -0.00127
14 | RRIRVRPPRLPRPRPRPPYLPRP | -0.0916
15 | RRIRGRPPRLPRPRPRPEYQPRP | 0.416
16 | RRIRMRPPRLPRPRPRPHCTPRP | -0.147
17 | RRIRMRPPRLPRPRPRPFLPPRP | -0.346
18 | RRIRDRPPRLPRPRPRPKQTPRP | 0.0941
19 | RRIRVRPPRLPRPRPRPHDDPRP | -0.162
20 | RRIRRRPPRLPRPRPRPGMNPRP | 0.00468
21 | RRIRKRPPRLPRPRPRPQHNPRP | -0.145
22 | RRIRDRPPRLPRPRPRPESTPRP | -0.0182

Row | Sequence | shrunken log2 fold change
23 | RRIRRRPPRLPRPRPRPQWFPRP | -0.076
24 | RRIRRRPPRLPRPRPRPCTVPRP | -0.0302
25 | RRIRVRPPRLPRPRPRPLGMPRP | -0.481
26 | RRIRVRPPRLPRPRPRPVDLPRP | 0.0988
27 | RRIRGRPPRLPRPRPRPTQMPRP | 0.924
28 | RRIRLRPPRLPRPRPRPTTWPRP | 0.0965
29 | RRIRARPPRLPRPRPRPCPPPRP | 0.156
30 | RRIRQRPPRLPRPRPRPTVQPRP | 0.226
31 | RRIRRRPPRLPRPRPRPLGTPRP | 0.547
32 | RRIRTRPPRLPRPRPRPMSGPRP | -0.137
33 | RRIRIRPPRLPRPRPRPFFFPRP | -0.0692
34 | RRIRNRPPRLPRPRPRPVFWPRP | 0.219
35 | RRIRIRPPRLPRPRPRPFPIPRP | 0.0234
36 | RRIRYRPPRLPRPRPRPANVPRP | -0.00291
37 | RRIRTRPPRLPRPRPRPALPPRP | 0.204
38 | RRIRHRPPRLPRPRPRPFEPPRP | 0.00846
39 | RRIRYRPPRLPRPRPRPHPAPRP | -0.333
40 | RRIRRRPPRLPRPRPRPNDQPRP | 0.261
41 | RRIRWRPPRLPRPRPRPQEDPRP | -0.0221
42 | RRIRQRPPRLPRPRPRPYHIPRP | 0.0735
43 | RRIRVRPPRLPRPRPRPWVQPRP | -0.021
44 | RRIRCRPPRLPRPRPRPYYDPRP | -0.361

Row | Sequence | shrunken log2 fold change
45 | RRIRMRPPRLPRPRPRPNWFPRP | -0.607
46 | RRIRERPPRLPRPRPRPVSAPRP | 0.148
47 | RRIRVRPPRLPRPRPRPYQVPRP | -0.293
48 | RRIRSRPPRLPRPRPRPENFPRP | -0.0342
49 | RRIRFRPPRLPRPRPRPPEMPRP | 0.0471
50 | RRIRSRPPRLPRPRPRPMKSPRP | 0.328
51 | RRIRIRPPRLPRPRPRPIKMPRP | -0.177
52 | RRIRVRPPRLPRPRPRPSKVPRP | -0.693
53 | RRIRIRPPRLPRPRPRPWHEPRP | 0.0173
54 | RRIRPRPPRLPRPRPRPRIVPRP | -0.0281
55 | RRIRHRPPRLPRPRPRPVVLPRP | -0.298
56 | RRIRLRPPRLPRPRPRPARFPRP | 0.0674
57 | RRIRVRPPRLPRPRPRPACAPRP | 0.322
58 | RRIRTRPPRLPRPRPRPQNHPRP | -1.49
59 | RRIRPRPPRLPRPRPRPSMSPRP | -0.409
60 | RRIRGRPPRLPRPRPRPPAKPRP | 1.48
61 | RRIRFRPPRLPRPRPRPIEKPRP | -0.0389
62 | RRIRERPPRLPRPRPRPNMHPRP | -0.619
63 | RRIRRRPPRLPRPRPRPAAFPRP | 0.967
64 | RRIRHRPPRLPRPRPRPHRDPRP | -0.263
65 | RRIRDRPPRLPRPRPRPIMAPRP | -0.00298
66 | RRIRDRPPRLPRPRPRPMNPPRP | -0.0564

Row | Sequence | shrunken log2 fold change
67 | RRIRYRPPRLPRPRPRPDILPRP | 0.0101
68 | RRIRIRPPRLPRPRPRPHGTPRP | -0.236
69 | RRIRDRPPRLPRPRPRPYQCPRP | -0.00205
70 | RRIRYRPPRLPRPRPRPLVNPRP | -1.09
71 | RRIRIRPPRLPRPRPRPRQDPRP | 0.0231
72 | RRIRERPPRLPRPRPRPYYWPRP | -0.192
73 | RRIRQRPPRLPRPRPRPQFMPRP | -0.302
74 | RRIRWRPPRLPRPRPRPFATPRP | 0.834
75 | RRIRNRPPRLPRPRPRPWCWPRP | -0.0119
76 | RRIRYRPPRLPRPRPRPTPAPRP | 0.238
77 | RRIRDRPPRLPRPRPRPGYRPRP | 0.000964
78 | RRIRQRPPRLPRPRPRPNNHPRP | -0.71
79 | RRIRCRPPRLPRPRPRPTEQPRP | -0.304
80 | RRIRPRPPRLPRPRPRPLNFPRP | -0.139
81 | RRIRMRPPRLPRPRPRPNQSPRP | 0.176
82 | RRIRIRPPRLPRPRPRPSHKPRP | -0.671
83 | RRIRQRPPRLPRPRPRPAQGPRP | -0.0366
84 | RRIRWRPPRLPRPRPRPVQMPRP | 0.159
85 | RRIRWRPPRLPRPRPRPQHLPRP | -0.678
86 | RRIRMRPPRLPRPRPRPGPTPRP | 1.54
87 | RRIRTRPPRLPRPRPRPSIEPRP | -0.155
88 | RRIRDRPPRLPRPRPRPPRWPRP | 0.331

Row | Sequence | shrunken log2 fold change
89 | RRIRRRPPRLPRPRPRPIWCPRP | -0.0104
90 | RRIRARPPRLPRPRPRPTNQPRP | 0.153
91 | RRIRWRPPRLPRPRPRPMKWPRP | 0.0452
92 | RRIRHRPPRLPRPRPRPWNEPRP | -0.171
93 | RRIRIRPPRLPRPRPRPWEAPRP | 0.0112
94 | RRIRSRPPRLPRPRPRPIFVPRP | 0.0197
95 | RRIRGRPPRLPRPRPRPEYEPRP | 0.165
96 | RRIRDRPPRLPRPRPRPLCKPRP | -0.224
97 | RRIRARPPRLPRPRPRPWEGPRP | 0.209
98 | RRIRPRPPRLPRPRPRPRDCPRP | 0.277
99 | RRIRRRPPRLPRPRPRPWKRPRP | -0.0441
100 | RRIRHRPPRLPRPRPRPHCYPRP | 0.0262
101 | RRIRTRPPRLPRPRPRPIFGPRP | -0.0261
102 | RRIRGRPPRLPRPRPRPIYMPRP | -0.191
103 | RRIRLRPPRLPRPRPRPAAEPRP | 0.432
104 | RRIRSRPPRLPRPRPRPIKPPRP | 0.0213
105 | RRIRHRPPRLPRPRPRPWEAPRP | -0.0553
106 | RRIRHRPPRLPRPRPRPWIAPRP | 0.143
107 | RRIRGRPPRLPRPRPRPRICPRP | 0.335
108 | RRIRDRPPRLPRPRPRPWRHPRP | 0.0719
109 | RRIRGRPPRLPRPRPRPVDNPRP | 0.408
